From US20260151539A1 (University of Washington, published 2026)

Biological target: the molecule itself
Experiment: cell-based or functional assay

Row | Protein | Recovery Time Crossover [s], 25 C | Recovery Time Crossover [s], 37 C | Strain crossover (G'' > G'), 25 C | Strain crossover (G'' > G'), 37 C
1 | PXP (SEQ ID NO: 81) (designed binder) MRGSHHHHHHGSGRGDSVDGSGSGSGSGSGSGAPQMLRELQETNAALQDVRELLRQQVKEITFLKNTVMESDASGSGSGSGSGSGSLDGSPAGSPTSTEEGTSESATPESGPGTSTEPSEGSAPGSPAGSPTSTEEGTSTEPSEGSAPGTSTEPSEGSAPGTSESATPESGPGSEPATSGSETPGSEPATSGSETPGSPAGSPTSTEEGTSESATPESGPGTSTEPSEGSAPLDGSGSGSGSGSGSGAPQMLRELQETNAALQDVRELLRQQVKEITFLKNTVMESDASGSGSGSGSGSGSLEGRGDSHHHHHHKLN | 4.79 s | 7.91 s | 161 % strain | 151 % strain
2 | T40A mutant (SEQ ID NO: 82) (designed binder) MRGSHHHHHHGSGRGDSGSGSGSGSGSGSGAPQMLRELQEANAALQDVRELLRQQVKEITFLKNTVMESDASGSGSGSGSGSVDGSPAGSPTSTEEGTSESATPESGPGTSTEPSEGSAPGSPAGSPTSTEEGTSTEPSEGSAPGTSTEPSEGSAPGTSESATPESGPGSEPATSGSETPGSEPATSGSETPGSPAGSPTSTEEGTSESATPESGPGTSTEPSEGSAPLESGSGSGSGSGSGAPQMLRELQEANAALQDVRELLRQQVKEITFLKNTVMESDASGSGSGSGSGSGSGRGDSHHHHHHKLN | 4.51 s | 4.58 s | 127 % strain | 143 % strain
3 | T40A+Q54A mutant (SEQ ID NO: 84) (designed binder) MRGSHHHHHHGSGRGDSGSGSGSGSGSGSGAPQMLRELQEANAALQDVRELLRQAVKEITFLKNTVMESDASGSGSGSGSGSVDGSPAGSPTSTEEGTSESATPESGPGTSTEPSEGSAPGSPAGSPTSTEEGTSTEPSEGSAPGTSTEPSEGSAPGTSESATPESGPGSEPATSGSETPGSEPATSGSETPGSPAGSPTSTEEGTSESATPESGPGTSTEPSEGSAPLESGSGSGSGSGSGAPQMLRELQEANAALQDVRELLRQAVKEITFLKNTVMESDASGSGSGSGSGSGSGRGDSHHHHHHKLN | 4.39 s | 4.38 s | 119 % strain | 95 % strain
4 | Q54A mutant (SEQ ID NO: 83) (designed binder) MRGSHHHHHHGSGRGDSGSGSGSGSGSGSGAPQMLRELQETNAALQDVRELLRQAVKEITFLKNTVMESDASGSGSGSGSGSVDGSPAGSPTSTEEGTSESATPESGPGTSTEPSEGSAPGSPAGSPTSTEEGTSTEPSEGSAPGTSTEPSEGSAPGTSESATPESGPGSEPATSGSETPGSEPATSGSETPGSPAGSPTSTEEGTSESATPESGPGTSTEPSEGSAPLESGSGSGSGSGSGAPQMLRELQETNAALQDVRELLRQAVKEITFLKNTVMESDASGSGSGSGSGSGSGRGDSHHHHHHKLN | 4.45 s | 4.39 s | 116 % strain | 132 % strain
